Measurements: patent US20110142761A1 (AbbVie / Abbott, published 2011)
Changes are numbered by the printed parent chain.

How the values were obtained:
human IL-1β [1] = biological target: T1, human IL-1β (human, UniProt P01584 117-269); test: cell-based or functional assay
human IL-1β [2] = biological target: T1, human IL-1β; test: SPR (Biacore 3000), antibody captured, human IL-1β as analyte, 25 C
Protocol: The BIACORE® assay (Biacore, Inc., Piscataway, N.J.) determines the affinity of antibodies with kinetic measurements of on-, off-rate constants. Binding of antibodies to recombinant purified human IL-1β was determined by surface plasmon resonance-based measurements with a Biacore™ 3000 instrument (Biacore™ AB, Uppsala, Sweden) using running HBS-EP (10 mM HEPES [pH 7.4], 150 mM NaCl, 3 mM EDTA, and 0.005% surfactant P20) at 25° C. All chemicals were obtained from Biacore® AB (Uppsala, Sweden) unless otherwise stated. Approximately 5,000 RU of goat anti-mouse IgG, (Fcγ), fragment specific polyclonal antibody (Pierce Biotechnology Inc, Rockford, Ill.) diluted in 10 mM sodium acetate (pH 4.5) was directly immobilized across a CM5 research grade biosensor chip using a standard amine coupling kit according to manufacturer's instructions and procedures at 25 μg/ml. Unreacted moieties on the biosensor surface were blocked with ethanolamine. Modified carboxymethyl dextran surface in flowcell 2 and 4 was used as a reaction surface. Unmodified carboxymethyl dextran without goat anti-mouse IgG in flow cell 1 and 3 was used as the reference surface. For kinetic analysis, rate equations derived from the 1:1 Langmuir binding model were fitted simultaneously to association and dissociation phases of all eight injections (using global fit analysis) with the use of Biaevaluation 4.0.1 software. Purified antibodies were diluted in HEPES-buffered saline for capture across goat anti-mouse IgG specific reaction surfaces. Mouse antibodies to be captured as a ligand (25 μg/ml) were injected over reaction matrices at a flow rate of 5 μl/minute. The association and dissociation rate constants, kₒₙ (unit M⁻¹s⁻¹) and koff (unit s⁻¹) were determined under a continuous flow rate of 25 μl/minute. Rate constants were derived by making kinetic binding measurements at ten different antigen concentrations ranging from 10-200 nM. The equilibrium dissociation constant (unit M) of the reaction between antibodies and the target antigen was then calculated from the kinetic rate constants by the following formula: KD=koff/kₒₙ. Binding is recorded as a function of time and kinetic rate constants are calculated. In this assay, on-rates as fast as 10⁶M⁻¹s⁻¹ and off-rates as slow as 10⁻⁶s⁻¹ can be measured.

human IL-1β [3] = biological target: T1, human IL-1β; test: ELISA; antibody captured on anti-human Fc, biotinylated human IL-1β titrated
Protocol: To determine if anti-IL-1β mAbs bind to human IL-1β, ELISA plates (Nunc, MaxiSorp, Rochester, N.Y.) were incubated overnight at 4° C. with anti-human Fc antibody diluted in Pierce Coat buffer at 2 μg/ml (Jackson Immunoresearch, West Grove, Pa.). Plates were washed five times in washing buffer (PBS containing 0.05% Tween 20), and blocked for 1 hour at 25° C. with 200 μl per well superblock blocking buffer (Thermo scientific, #37515). Blocking buffer was removed by tapping plates, and 2 μg/ml of each antibody in PBS containing 10% superblock, 0.5% tween-20 was added to the wells at 100 μl per well and incubated at 25° C. for 1 hour. The wells were washed five times in 1×PBST, and 1 μg/ml biotinylated antigen was titrated at 1:6 serial dilutions (for a range of μg to pg in PBS containing 10% superblock, 0.05% tween 20). Each dilution of antigen was then added to the plates and incubated for 1 hour at 25° C. The wells were washed five times in 1×PBST and incubated for 1 hour at 25° C. with polyHRP streptavidin (KPL #474-3000, Gaithersburg, Md.). The wells were washed five times in 1×PBST, and 100 μl of ULTRA-TMB ELISA (Pierce, Rockford, Ill.) were added per well. Following color development the reaction was stopped with 1N HCL and absorbance at 450 nm was measured. The results are shown in Table 9, and the numerical value indicating binding of human anti-IL-1β antibodies to human IL-1β.

B1: humanized anti-human IL-1β antibody 1B12.2 (antibody, V domains shown)
VH: EVQLQESGPGLVKPSETLSLTCTVSGFSLSDYGVSWIRQPPGKGLEWLGLIWGGGDTYYNSPLKSRLTISKDNSKSQVSLKLSSVTAADTAVYYCAKQRTLWGYDLYGMDYWGQGTLVTVSS
VL: ETTVTQSPSSLSASVGDRVTITCITSTDIDVDMNWYQQKPGKPPKLLISQGNTLRPGVPSRFSSSGSGTDFTFTISSLQPEDFATYYCLQSDNLPLTFGQGTKLEIK
notes: Cloned into IgG expression vectors and made as full-length humanized antibody; also called h1B12VH.1a/h1B12VL.1b; combination 2
What does the source list for B1?
Potency on Human IL-1β IC50 (pM); inhibition of IL-1β-induced IL-8 production by MRC-5 cells (human IL-1β [1]): 146 pM; Kd (human IL-1β [2]): 0.147 nM; koff (human IL-1β [2]): 0.0009 s⁻¹; kon (human IL-1β [2]): 6.13e+06 M⁻¹ s⁻¹; EC50 (human IL-1β [3]): 0.0376 nM

B2: humanized anti-human IL-1β antibody 1B12.1 (antibody, V domains shown)
VH: B1 VH
VL: B1 VL with E1D, T3Q
B2 was tested. Which “Potency on Human IL-1β IC50 (pM); inhibition of IL-1β-induced IL-8 production by MRC-5 cells” value (human IL-1β [1]) did it give?
Its value is 151 pM.

B3: humanized anti-human IL-1β antibody 1B12.4 (antibody, V domains shown)
VH: B1 VH
VL: ETTVTQSPAFLSVTPGEKVTITCITSTDIDVDMNWYQQKPDQPPKLLISQGNTLRPGVPSRFSSSGSGTDFTFTISSLEAEDAATYYCLQSDNLPLTFGQGTKLEIK
notes: Cloned into IgG expression vectors and made as full-length humanized antibody; also called h1B12VH.1a/h1B12VL.2b; combination 4
How did the “Potency on Human IL-1β IC50 (pM); inhibition of IL-1β-induced IL-8 production by MRC-5 cells” value (human IL-1β [1]) turn out when B3 was run?
Its value is 597 pM.

And the Kd (human IL-1β [2])?
The Kd was 0.161 nM.

What about the koff (human IL-1β [2]) of the same binder?
The koff was 0.00097 s⁻¹.

And the kon (human IL-1β [2])?
The kon was 6.01e+06 M⁻¹ s⁻¹.

And the EC50 (human IL-1β [3])?
Its EC50 is 0.0378 nM.

B4: humanized anti-human IL-1β antibody 1B12.3 (antibody, V domains shown)
VH: B1 VH
VL: B3 VL with E1D, T3V
Which “Potency on Human IL-1β IC50 (pM); inhibition of IL-1β-induced IL-8 production by MRC-5 cells” value (human IL-1β [1]) does the source give for B4 here?
Its value is 303 pM.

B5: humanized anti-human IL-1β antibody 1B12.6 (antibody, V domains shown)
VH: EVQLVESGGGLVQPGGSLRLSCAVSGFTLSDYGVSWIRQAPGKGLEWLGLIWGGGDTYYNSPLKSRLTISKDNSKSTVYLQMNSLRAEDTAVYYCAKQRTLWGYDLYGMDYWGQGTLVTVSS
VL: B1 VL
Which “Potency on Human IL-1β IC50 (pM); inhibition of IL-1β-induced IL-8 production by MRC-5 cells” value (human IL-1β [1]) does the source give for B5 here?
Its value is 378 pM.

B6: humanized anti-human IL-1β antibody 1B12.5 (antibody, V domains shown)
VH: B5 VH
VL: B1 VL with E1D, T3Q
notes: Cloned into IgG expression vectors and made as full-length humanized antibody; also called h1B12VH.2a/h1B12VL.1a; combination 5
How did the “Potency on Human IL-1β IC50 (pM); inhibition of IL-1β-induced IL-8 production by MRC-5 cells” value (human IL-1β [1]) turn out when B6 was run?
The value was 319 pM.

And the Kd (human IL-1β [2])?
Its Kd is 0.231 nM.

And the koff (human IL-1β [2])?
Its koff is 0.00144 s⁻¹.

What about the kon (human IL-1β [2]) of the same binder?
The kon was 6.24e+06 M⁻¹ s⁻¹.

And the EC50 (human IL-1β [3])?
Its EC50 is 0.0488 nM.

B7: humanized anti-human IL-1β antibody 1B12.8 (antibody, V domains shown)
VH: B5 VH
VL: B3 VL
notes: Cloned into IgG expression vectors and made as full-length humanized antibody; also called h1B12VH.2a/h1B12VL.2b; combination 8
Which “Potency on Human IL-1β IC50 (pM); inhibition of IL-1β-induced IL-8 production by MRC-5 cells” value (human IL-1β [1]) does the source give for B7 here?
Its value is 484 pM.

And the Kd (human IL-1β [2])?
The Kd was 0.23 nM.

And the koff (human IL-1β [2])?
The koff was 0.00137 s⁻¹.

And the kon (human IL-1β [2])?
The kon was 5.94e+06 M⁻¹ s⁻¹.

And the EC50 (human IL-1β [3])?
Its EC50 is 0.0479 nM.

B8: humanized anti-human IL-1β antibody 1B12.7 (antibody, V domains shown)
VH: B5 VH
VL: B3 VL with E1D, T3V
notes: Cloned into IgG expression vectors and made as full-length humanized antibody; also called h1B12VH.2a/h1B12VL.2a; combination 7
Which results are given for B8?
Potency on Human IL-1β IC50 (pM); inhibition of IL-1β-induced IL-8 production by MRC-5 cells (human IL-1β [1]): 581 pM; Kd (human IL-1β [2]): 0.284 nM; koff (human IL-1β [2]): 0.00164 s⁻¹; kon (human IL-1β [2]): 5.76e+06 M⁻¹ s⁻¹; EC50 (human IL-1β [3]): 0.0582 nM
